Assay results from publication PMC4479010.

Target: GFP monomer (GFP 11 linked to the N terminus of GFP 1–10), net charge −3 [GFP: P42212]
Experiment: PAGE with 0.1% SDS + SEC; GFP oligomer mixture; SEC on Superdex 200 10/300 GL, 0.5 ml/min, 500 mM NaCl, 50 mM Tris pH 8.0 or PBS

Q: With “GFP monomer (GFP 11 linked to the N terminus of GFP 1–10), net charge −3 (from UniProt P42212 215-230; P42212 1-214) (designed binder)” as the substance, how does the percent of expressed monomers polymerized to oligomers above the dimer read?
A: The percent of expressed monomers polymerized to oligomers above the dimer was 50%.
